This data set concerns Escherichia coli TOP10. Nature of the data set: shrunken log2 fold change of peptide-encoding DNA abundance (4.5 h post-induction vs induction); higher = less antimicrobial activity (less host growth inhibition). As to conditions: time post-induction: 4.5 h; library: site-saturation at positions 5, 18, 19, 20.
Regarding RRIRSRPPRLPRPRPRPIMKPRP, the “shrunken log2 fold change” value was -0.292. With RRIRERPPRLPRPRPRPSKEPRP, the “shrunken log2 fold change” value was -0.0565.

For RRIRCRPPRLPRPRPRPDDRPRP, the “shrunken log2 fold change” value was -0.0204. For RRIRFRPPRLPRPRPRPESTPRP, the “shrunken log2 fold change” value is -0.00608. Consider RRIRGRPPRLPRPRPRPSYCPRP, for which the “shrunken log2 fold change” value amounted to 0.237.

Turning to RRIRVRPPRLPRPRPRPGNMPRP, the “shrunken log2 fold change” value is 0.151.

With RRIRYRPPRLPRPRPRPGVIPRP, the “shrunken log2 fold change” value was -0.297. With RRIRNRPPRLPRPRPRPCWSPRP, the “shrunken log2 fold change” value came to 0.0596. Consider RRIRIRPPRLPRPRPRPQWCPRP, for which the “shrunken log2 fold change” value worked out at 0.307.

Turning to RRIRIRPPRLPRPRPRPTEIPRP, the “shrunken log2 fold change” value is -0.305. The result for RRIRRRPPRLPRPRPRPNHVPRP reads -0.443. Consider RRIRQRPPRLPRPRPRPSNQPRP, for which the “shrunken log2 fold change” value was -0.359. For RRIRERPPRLPRPRPRPQSFPRP, the “shrunken log2 fold change” value was -0.0705.

In the case of RRIRTRPPRLPRPRPRPNKMPRP, the “shrunken log2 fold change” value was 0.0425. For the sequence RRIRERPPRLPRPRPRPCRQPRP, the “shrunken log2 fold change” value was -0.157.

As to RRIRVRPPRLPRPRPRPFQQPRP, the “shrunken log2 fold change” value was -0.014. For RRIRRRPPRLPRPRPRPWHAPRP, the “shrunken log2 fold change” value amounted to 0.279. The result for RRIRYRPPRLPRPRPRPCTTPRP reads -0.256; that for RRIRRRPPRLPRPRPRPPGHPRP, 0.507.

On to RRIRKRPPRLPRPRPRPNVVPRP, for which the “shrunken log2 fold change” value was found to be 0.0163. Consider RRIRARPPRLPRPRPRPHQKPRP, for which the “shrunken log2 fold change” value is -0.0267.

Take RRIRYRPPRLPRPRPRPQNQPRP: the “shrunken log2 fold change” value was -0.562. With RRIRDRPPRLPRPRPRPACTPRP the figure was 0.642; with RRIRSRPPRLPRPRPRPICFPRP, -0.15. For the sequence RRIRARPPRLPRPRPRPEPKPRP, the “shrunken log2 fold change” value stood at 1.36. Turning to RRIRMRPPRLPRPRPRPKHNPRP, the “shrunken log2 fold change” value was 0.131. For the sequence RRIRERPPRLPRPRPRPTHGPRP, the “shrunken log2 fold change” value came to 0.0992. Regarding RRIRPRPPRLPRPRPRPLHPPRP, the “shrunken log2 fold change” value came to 0.252.

Regarding RRIRWRPPRLPRPRPRPSSVPRP, the “shrunken log2 fold change” value is 0.278. For RRIRERPPRLPRPRPRPQCIPRP, the “shrunken log2 fold change” value was 0.0341.

Turning to RRIRKRPPRLPRPRPRPTVYPRP, the “shrunken log2 fold change” value is -0.0794.

Consider RRIRGRPPRLPRPRPRPDNTPRP, for which the “shrunken log2 fold change” value was found to be 0.204. As to RRIRARPPRLPRPRPRPKIQPRP, the “shrunken log2 fold change” value was found to be 0.26. As for RRIRWRPPRLPRPRPRPPRVPRP, the “shrunken log2 fold change” value was found to be 0.626. Take RRIRWRPPRLPRPRPRPKAAPRP: the “shrunken log2 fold change” value stood at 0.338. Consider RRIRHRPPRLPRPRPRPFFLPRP, for which the “shrunken log2 fold change” value is -0.238. On to RRIRDRPPRLPRPRPRPPWTPRP, for which the “shrunken log2 fold change” value stood at 0.238. RRIRFRPPRLPRPRPRPAGMPRP: the “shrunken log2 fold change” value is -0.124. In the case of RRIRARPPRLPRPRPRPSQWPRP, the “shrunken log2 fold change” value was found to be 0.24. In the case of RRIRPRPPRLPRPRPRPDISPRP, the “shrunken log2 fold change” value amounted to 0.0683. The result for RRIRYRPPRLPRPRPRPMKEPRP reads -0.00804; that for RRIRFRPPRLPRPRPRPFPLPRP, -0.289; that for RRIRLRPPRLPRPRPRPVIDPRP, -0.182. Regarding RRIRLRPPRLPRPRPRPKASPRP, the “shrunken log2 fold change” value was -0.231. As to RRIRGRPPRLPRPRPRPEMAPRP, the “shrunken log2 fold change” value turned out to be 2.8. As to RRIRKRPPRLPRPRPRPHNCPRP, the “shrunken log2 fold change” value turned out to be 0.0806. Consider RRIRVRPPRLPRPRPRPYGFPRP, for which the “shrunken log2 fold change” value is -0.222. RRIRRRPPRLPRPRPRPRGMPRP: the “shrunken log2 fold change” value worked out at 0.907.

Take RRIRWRPPRLPRPRPRPGYQPRP: the “shrunken log2 fold change” value was -0.00973. With RRIRLRPPRLPRPRPRPFVFPRP the figure was -0.337. Regarding RRIRPRPPRLPRPRPRPQCDPRP, the “shrunken log2 fold change” value was -0.254.

Take RRIRWRPPRLPRPRPRPVIEPRP: the “shrunken log2 fold change” value was determined as 0.0398. For RRIRARPPRLPRPRPRPCEMPRP, the “shrunken log2 fold change” value turned out to be 0.345. The result for RRIRNRPPRLPRPRPRPKDHPRP reads -0.218. As for RRIRYRPPRLPRPRPRPISSPRP, the “shrunken log2 fold change” value was -0.262.

With RRIRGRPPRLPRPRPRPMDWPRP, the “shrunken log2 fold change” value was found to be 0.929. The result for RRIRCRPPRLPRPRPRPSCSPRP reads -0.482; that for RRIRARPPRLPRPRPRPAPYPRP, -0.0625; that for RRIRRRPPRLPRPRPRPAGTPRP, -0.0331. With RRIRFRPPRLPRPRPRPMMLPRP the figure was -0.139; with RRIRRRPPRLPRPRPRPPRHPRP, 1.08; with RRIRKRPPRLPRPRPRPTAQPRP, 1.88. Consider RRIRMRPPRLPRPRPRPWMNPRP, for which the “shrunken log2 fold change” value is -0.00973.

For the sequence RRIRLRPPRLPRPRPRPSTDPRP, the “shrunken log2 fold change” value is -0.356. For the sequence RRIRGRPPRLPRPRPRPMAYPRP, the “shrunken log2 fold change” value is 0.0863. With RRIRLRPPRLPRPRPRPCELPRP the figure was -0.358; with RRIRDRPPRLPRPRPRPQWWPRP, 0.274; with RRIRGRPPRLPRPRPRPYEKPRP, -0.0149. With RRIRCRPPRLPRPRPRPDGFPRP, the “shrunken log2 fold change” value is -0.333. For RRIRHRPPRLPRPRPRPQSNPRP, the “shrunken log2 fold change” value is -0.288.

Consider RRIRERPPRLPRPRPRPCFTPRP, for which the “shrunken log2 fold change” value is -0.453. As to RRIRFRPPRLPRPRPRPFQYPRP, the “shrunken log2 fold change” value was -0.127. For RRIRFRPPRLPRPRPRPSPMPRP, the “shrunken log2 fold change” value amounted to 1.17.

Take RRIRNRPPRLPRPRPRPQISPRP: the “shrunken log2 fold change” value came out at 0.00683. With RRIRGRPPRLPRPRPRPYQEPRP, the “shrunken log2 fold change” value worked out at 0.0063. In the case of RRIRTRPPRLPRPRPRPAYWPRP, the “shrunken log2 fold change” value is -0.017. For RRIRMRPPRLPRPRPRPTYWPRP, the “shrunken log2 fold change” value was found to be 0.169. Take RRIRVRPPRLPRPRPRPETSPRP: the “shrunken log2 fold change” value was -0.369. Consider RRIRIRPPRLPRPRPRPTETPRP, for which the “shrunken log2 fold change” value was found to be 0.0225. RRIRLRPPRLPRPRPRPTTGPRP: the “shrunken log2 fold change” value is 0.0715.

As to RRIRMRPPRLPRPRPRPTHDPRP, the “shrunken log2 fold change” value is 0.81.

For RRIRYRPPRLPRPRPRPGMWPRP, the “shrunken log2 fold change” value turned out to be 0.234.

In the case of RRIRYRPPRLPRPRPRPEMAPRP, the “shrunken log2 fold change” value was -0.107.

In the case of RRIRDRPPRLPRPRPRPSKQPRP, the “shrunken log2 fold change” value is -0.257. As for RRIRMRPPRLPRPRPRPYIIPRP, the “shrunken log2 fold change” value is -0.151. As for RRIRVRPPRLPRPRPRPVARPRP, the “shrunken log2 fold change” value stood at 0.223.

Turning to RRIRDRPPRLPRPRPRPNWEPRP, the “shrunken log2 fold change” value was found to be 0.0184. With RRIRFRPPRLPRPRPRPVTYPRP, the “shrunken log2 fold change” value was -0.557. For RRIRVRPPRLPRPRPRPECVPRP, the “shrunken log2 fold change” value is 0.399. With RRIRQRPPRLPRPRPRPWGMPRP the figure was -0.0405. On to RRIRWRPPRLPRPRPRPDMRPRP, for which the “shrunken log2 fold change” value stood at 0.499. For RRIRMRPPRLPRPRPRPMVEPRP, the “shrunken log2 fold change” value stood at 0.0167. With RRIRQRPPRLPRPRPRPLWPPRP the figure was 0.227.

For the sequence RRIRKRPPRLPRPRPRPYWCPRP, the “shrunken log2 fold change” value was -0.485. The result for RRIRIRPPRLPRPRPRPKQRPRP reads 0.0202.

For RRIRTRPPRLPRPRPRPGRTPRP, the “shrunken log2 fold change” value was -0.0318.

RRIRIRPPRLPRPRPRPCPPPRP: the “shrunken log2 fold change” value was -0.328. RRIRERPPRLPRPRPRPLTQPRP: the “shrunken log2 fold change” value is -0.281. Regarding RRIRIRPPRLPRPRPRPLARPRP, the “shrunken log2 fold change” value came to 0.346. For the sequence RRIRFRPPRLPRPRPRPNTGPRP, the “shrunken log2 fold change” value is -0.165. RRIRRRPPRLPRPRPRPVDNPRP: the “shrunken log2 fold change” value worked out at 0.0838. Regarding RRIRWRPPRLPRPRPRPPFLPRP, the “shrunken log2 fold change” value stood at 0.26.

In the case of RRIRERPPRLPRPRPRPFWQPRP, the “shrunken log2 fold change” value was -0.0859. The result for RRIRARPPRLPRPRPRPCCFPRP reads 0.274. The result for RRIRNRPPRLPRPRPRPMHMPRP reads -0.00926; that for RRIRGRPPRLPRPRPRPFWSPRP, 0.679. Take RRIRYRPPRLPRPRPRPMTDPRP: the “shrunken log2 fold change” value was -0.0354. Take RRIRVRPPRLPRPRPRPVWWPRP: the “shrunken log2 fold change” value is -0.0476. Regarding RRIRWRPPRLPRPRPRPMTLPRP, the “shrunken log2 fold change” value is -0.0611. Take RRIRARPPRLPRPRPRPYPTPRP: the “shrunken log2 fold change” value is -0.0691. The result for RRIRNRPPRLPRPRPRPTWCPRP reads -0.0306. In the case of RRIRERPPRLPRPRPRPSSQPRP, the “shrunken log2 fold change” value worked out at 0.123.

In the case of RRIRKRPPRLPRPRPRPRAEPRP, the “shrunken log2 fold change” value amounted to 0.632.

With RRIRRRPPRLPRPRPRPMGWPRP, the “shrunken log2 fold change” value came to 0.637. Regarding RRIRWRPPRLPRPRPRPHYDPRP, the “shrunken log2 fold change” value is -0.0735.

As for RRIRMRPPRLPRPRPRPQGGPRP, the “shrunken log2 fold change” value worked out at 0.631. With RRIRVRPPRLPRPRPRPTTAPRP the figure was 0.181; with RRIRKRPPRLPRPRPRPIKPPRP, 0.0885; with RRIRQRPPRLPRPRPRPGTQPRP, -0.152. For RRIRCRPPRLPRPRPRPYWSPRP, the “shrunken log2 fold change” value was -1.2. Regarding RRIRYRPPRLPRPRPRPFYWPRP, the “shrunken log2 fold change” value is -1.7. For the sequence RRIRGRPPRLPRPRPRPLFTPRP, the “shrunken log2 fold change” value turned out to be 0.572. Turning to RRIRGRPPRLPRPRPRPLVWPRP, the “shrunken log2 fold change” value amounted to 0.952.

Regarding RRIRVRPPRLPRPRPRPQRAPRP, the “shrunken log2 fold change” value turned out to be 0.348.

For the sequence RRIRVRPPRLPRPRPRPNNQPRP, the “shrunken log2 fold change” value was -0.483.
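Note: peptides expressed intracellularly from a pBAD plasmid library in pooled LB shake-flask culture, induced with 0.3% L-arabinose, DNA abundance read by NGS, three biological replicates, DESeq2 with apeglm shrinkage.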
